Consider one molecule from PMC13132546, “The FAM53C/DYRK1A axis regulates the G1/S transition of the cell cycle” (eLife, 2026).

This assay has as its target T1, DYRK1A (recombinant, N-terminally biotinylated) (UniProt Q13627 1-763, biotin on the N-terminus (sortase labelling with a synthetic biotin-LPETGG peptide onto the N-terminal glycine left after TEV cleavage)).
T1 construct: DYRK1A; also called Dual-specificity Tyrosine Phosphorylation-regulated Kinase 1 A; biotinylated DYRK1A; not shown: GST, N-terminal, cleaved; biotin-LPETGG peptide (sortase-ligated), N-terminal, kept
As to the kind of experiment: BLI; Octet-RED96e; 200 nM biotinylated DYRK1A loaded on streptavidin biosensor tips, dipped into FAM53C analyte at varied concentrations; 25 mM Tris pH 8.0, 150 mM NaCl, 1 mM DTT, 2 mg/mL BSA, 0.2% Tween; double reference-subtracted; rates from a 1:1 model, KD from steady-state analysis. Conditions: both partners purified.

B1: FAM53C (recombinant) (natural protein, UniProt Q9NYF3 1-392, looked up)
chain: MITLITEQLQKQTLDELKCTRFSISLPLPDHADISNCGNSFQLVSEGASWRGLPHCSCAEFQDSLNFSYHPSGLSLHLRPPSRGNSPKEQPFSQVLRPEPPDPEKLPVPPAPPSKRHCRSLSVPVDLSRWQPVWRPAPSKLWTPIKHRGSGGGGGPQVPHQSPPKRVSSLRFLQAPSASSQCAPAHRPYSPPFFSLALAQDSSRPCAASPQSGSWESDAESLSPCPPQRRFSLSPSLGPQASRFLPSARSSPASSPELPWRPRGLRNLPRSRSQPCDLDARKTGVKRRHEEDPRRLRPSLDFDKMNQKPYSGGLCLQETAREGSSISPPWFMACSPPPLSASCSPTGGSSQVLSESEEEEEGAVRWGRQALSKRTLCQRDFGDLDLNLIEEN
notes: FAM53C; also called C5ORF6; source: E. coli BL21 (DE3), purified (Ni-NTA, TEV cleavage, Q Sepharose, Superdex 75)
On to B1, for which the Kd worked out at 3.3 ± 0.5 mM.
